In patent US20190071467A1:

Tests used:
[1] = biological target: VDAC1 on intact mitochondria purified from NSC34 cells (mouse (NSC34 cell line)) (UniProt Q60932); experiment: competition with SOD1-G93A on intact NSC34 mitochondria, fractionation, immunoblot
[2] = biological target: human VDAC1, recombinant, C-terminal His-tag, refolded in LDAO (human) (UniProt P21796); experiment: competition pull-down on VDAC1-coated magnetic beads (30 uM VDAC1, 6.5 uM SOD1-G93A), anti-SOD1 immunoblot
Sequence of UniProt P21796 (P21796 other isoform, or with tags, fused parts or gaps limits assumed): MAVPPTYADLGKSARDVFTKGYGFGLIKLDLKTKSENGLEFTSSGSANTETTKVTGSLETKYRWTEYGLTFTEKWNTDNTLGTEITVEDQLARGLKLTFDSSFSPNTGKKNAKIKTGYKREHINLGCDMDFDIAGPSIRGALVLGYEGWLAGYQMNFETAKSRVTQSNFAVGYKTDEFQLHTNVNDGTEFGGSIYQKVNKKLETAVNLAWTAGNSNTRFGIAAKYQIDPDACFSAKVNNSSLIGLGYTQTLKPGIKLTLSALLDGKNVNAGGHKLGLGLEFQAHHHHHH

Sequence of UniProt Q60932 (Q60932 whole entry): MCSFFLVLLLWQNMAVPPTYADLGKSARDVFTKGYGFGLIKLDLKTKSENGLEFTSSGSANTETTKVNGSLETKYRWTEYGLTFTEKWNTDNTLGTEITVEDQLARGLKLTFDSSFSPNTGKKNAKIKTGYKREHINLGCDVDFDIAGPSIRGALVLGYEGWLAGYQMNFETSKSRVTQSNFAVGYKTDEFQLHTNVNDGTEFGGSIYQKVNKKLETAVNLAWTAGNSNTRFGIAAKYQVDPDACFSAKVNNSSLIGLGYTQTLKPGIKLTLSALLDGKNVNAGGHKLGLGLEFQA

**Q.** For IAAQLLAYYFT [synthetic peptide NHK1], which percent decrease of SOD1-G93A bound to mitochondria at 60 µM NHK1 [1] is on record?
**A.** 90%

**Q.** And the percent reduction of SOD1-G93A bound to VDAC1 at 10 µM NHK1 [2]?
**A.** 40%

**Q.** What about the percent reduction of SOD1-G93A bound to VDAC1 at 25 µM NHK1 [2] of the same binder?
**A.** 80%
